Substitutions are numbered along the chain they refer to.
T1: human CX3CR1 receptor (human, UniProt P49238 1-355)
T1 construct: Expressed on stably transfected HEK or CHO cells, or endogenous on human PBMC (CD8+ T cells, NK cells); also called HEK-CX3CR1 cells; CHO-CX3CR1 cells
T1 sequence: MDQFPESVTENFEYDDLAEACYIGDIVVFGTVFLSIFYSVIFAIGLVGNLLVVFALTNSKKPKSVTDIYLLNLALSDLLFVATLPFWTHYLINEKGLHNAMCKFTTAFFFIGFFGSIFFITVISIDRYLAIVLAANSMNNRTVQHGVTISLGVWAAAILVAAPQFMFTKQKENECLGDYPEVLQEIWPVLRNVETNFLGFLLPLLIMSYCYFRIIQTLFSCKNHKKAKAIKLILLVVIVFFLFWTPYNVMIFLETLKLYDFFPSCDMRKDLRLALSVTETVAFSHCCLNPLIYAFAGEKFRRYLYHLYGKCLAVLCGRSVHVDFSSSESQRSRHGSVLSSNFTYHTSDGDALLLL

B1: CX3CL1 (native human soluble chemokine) (ligand)
chain: QHHGVTKCNITCSKMTSKIPVALLIHYQQNQASCGKRAIILETRQHRLFCADPKEQWVKDAMQHLDRQAAALTRNG
notes: The tracer is iodinated CX3CL1 from Amersham; also called fractalkine; FKN
B2: CX3CL1-phage (human CX3CL1 chemokine domain displayed on phage) (other, not shown: large carriers)
chain: B1 chain
notes: also called phage-chemokine
B3: phage-displayed CX3CL1 mutant with N-terminal sequence QSPGMS (other, not shown: large carriers)
chain: B1 chain with H2S, H3P, V5M, T6S
notes: Selected phage clone (agonist selection); not tested singly
B4: phage-displayed CX3CL1 mutant with N-terminal sequence QSLVLP (other, not shown: large carriers)
chain: B1 chain with H2S, H3L, G4V, V5L, T6P
notes: Selected phage clone (antagonist selection); not tested singly
B5: phage-displayed CX3CL1 mutant with N-terminal sequence QVQGVT (other, not shown: large carriers)
chain: B1 chain with H2V, H3Q
notes: as for B3
B6: phage-displayed CX3CL1 mutant with N-terminal sequence QLFALS (other, not shown: large carriers)
chain: B1 chain with H2L, H3F, G4A, V5L, T6S
notes: as for B4
B7: phage-displayed CX3CL1 mutant with N-terminal sequence VQSVLS (other, not shown: large carriers)
chain: B1 chain with Q1V, H2Q, H3S, G4V, V5L, T6S
notes: as for B4
B8: F2 (CX3CL1 analogue with N-terminal sequence QPQGVS) (ligand)
chain: B1 chain with H2P, H3Q, T6S
notes: Produced by chemical synthesis
B9: phage-displayed CX3CL1 mutant with N-terminal sequence ILDNGVA (other, not shown: large carriers)
chain: ILDNGVAKCNITCSKMTSKIPVALLIHYQQNQASCGKRAIILETRQHRLFCADPKEQWVKDAMQHLDRQAAALTRNG
notes: as for B4
B10: phage-displayed CX3CL1 mutant with N-terminal sequence TLAQGLP (other, not shown: large carriers)
chain: B9 chain with I1T, D3A, N4Q, V6L, A7P
notes: as for B4
B11: phage-F1 (phage clone ILDNGVS) (other, not shown: large carriers)
chain: B9 chain with A7S
B12: phage-displayed CX3CL1 mutant with N-terminal sequence ILDGGVS (other, not shown: large carriers)
chain: B9 chain with N4G, A7S
notes: as for B4
B13: phage-displayed CX3CL1 mutant with N-terminal sequence TLPQGLA (other, not shown: large carriers)
chain: B9 chain with I1T, D3P, N4Q, V6L
notes: as for B4
B14: phage-displayed CX3CL1 mutant with N-terminal sequence ILDLGLS (other, not shown: large carriers)
chain: B9 chain with N4L, V6L, A7S
notes: as for B4
B15: phage-displayed CX3CL1 mutant with N-terminal sequence QRDSVLA (other, not shown: large carriers)
chain: B9 chain with I1Q, L2R, N4S, G5V, V6L
notes: as for B4
B16: phage-displayed CX3CL1 mutant with N-terminal sequence SLIPVVP (other, not shown: large carriers)
chain: B9 chain with I1S, D3I, N4P, G5V, A7P
notes: as for B4
B17: F1 (CX3CL1 analogue, soluble chemokine domain with N-terminal sequence ILDNGVS) (ligand)
chain: B9 chain with A7S
notes: also called F1 analogue; soluble F1
B18: phage-displayed CX3CL1 mutant with N-terminal sequence WLSQGLA (other, not shown: large carriers)
chain: B9 chain with I1W, D3S, N4Q, V6L
notes: as for B4
B19: phage-displayed CX3CL1 mutant with N-terminal sequence ILDLGLT (other, not shown: large carriers)
chain: B9 chain with N4L, V6L, A7T
notes: as for B4
B20: phage-displayed CX3CL1 mutant with N-terminal sequence FLQSDVA (other, not shown: large carriers)
chain: B9 chain with I1F, D3Q, N4S, G5D
notes: as for B4
B21: phage-displayed CX3CL1 mutant with N-terminal sequence QPLFAVA (other, not shown: large carriers)
chain: B9 chain with I1Q, L2P, D3L, N4F, G5A
notes: as for B4
B22: phage-displayed CX3CL1 mutant with N-terminal sequence SLDHGLS (other, not shown: large carriers)
chain: B9 chain with I1S, N4H, V6L, A7S
notes: as for B4
B23: phage-displayed CX3CL1 mutant with N-terminal sequence ILGRDVA (other, not shown: large carriers)
chain: B9 chain with D3G, N4R, G5D
notes: as for B4
B24: F2-Ig (F2 fused to a domain of an immunoglobulin) (Fc fusion)
chain: QPQGVSKCNITCSKMTSKIPVALLIHYQQNQASCGKRAIILETRQHRLFCADPKEQWVKDAMQHLDRQAAALTRNGAAAHPRGPTIKPCPPCKCPAPNLEGGPSVFIFPPKIKDVLMISLSPIVTCVVVDVSEDDPDVQISWFVNNVEVHTAQTQTHREDYDSTLRVVSALPIQHQDWMSGKAFACAVNNKDLPAPIGRTISKPKGSVRAPQVYVLPPPEEEMTKKQVTLTCMVTDFMPEDIYVEWTNNGKTELNYKNTEPVLDSDGSYFMYSKLRVEKKNWVERNSYSCSVVHEGLHNHHTTKSFSRPPGK
B25: CX3CL1-Ig (CX3CL1 chemokine domain fused to murine Fc) (Fc fusion)
chain: QHHGVTKCNITCSKMTSKIPVALLIHYQQNQASCGKRAIILETRQHRLFCADPKEQWVKDAMQHLDRQAAALTRNGEPRGPTIKPCPPCKCPAPNLEGGPSVFIFPPKIKDVLMISLSPIVTCVVVDVSEDDPDVQISWFVNNVEVHTAQTQTHREDYNSTLRVVSALPIQHQDWMSGKAFACAVNNKDLPAPIERTISKPKGSVRAPQVYVLPPPEEEMTKKQVTLTCMVTDFMPEDIYVEWTNNGKTELNYKNTEPVLDSDGSYFMYSKLRVEKKNWVERNSYSCSVVHEGLHNHHTTKSFSRTPGK
notes: domain: Fcγ2a fragment; also called FKN-Ig
B26: CCL5-expressing phage (other, UniProt P13501 24-91, looked up, not shown: large carriers)
chain: SPYSSDTTPCCFAYIARPLPRAHIKEYFYTSGKCSNPAVVFVTRKNRQVCANPEKKWVREYINSLEMS
notes: Control phage

Legend:
[1] = target: T1, human CX3CR1 receptor; assay: competitive radioligand binding, CX3CR1-expressing HEK cells, 125I-FKN tracer
Protocol: (§1) Assays were performed as previously described by Moatti et al. (2001, Blood 97, 1925-8). Competitive binding to HEK-CX3CR1 and CHO-CX3CR1 cells was performed with 50 pM [¹²⁵I]-CX3CL1 (Amersham General Electric, Saclay, France) plus variable amounts of unlabeled ligand. Each concentration was assayed in duplicate. After 2 h at 37° C., cells were washed and radioactivity in the cell pellet was quantified with a gamma counter (LKB Wallac, Saint Quentin en Yvelines, France).
(§2) Assays for determining the competitive radioligand binding of F2 and of F2-Ig to CX3CR1 were carried out as described in Example 1.8.

[2] = target: T1, human CX3CR1 receptor; assay: competitive radioligand binding, HEK-CX3CR1 cells, [125I]-CX3CL1 tracer
Protocol: as §1
CX3CL1 in a competition binding, with HEK-CX3CR1 cells and [¹²⁵I]-CX3CL1 as a tracer. The F1 analogue interacted with CX3CR1, although with a lower affinity than CX3CL1. […] A similar difference in affinity was apparent when F1 and CX3CL1 were tested on CHO-CX3CR1 cells, and when the affinity of CX3CL1-Ig was compared to that of F1-Ig.

[3] = target: T2, CCR5 (on HEK-CCR5 cells) (UniProt P51681 1-352, limits assumed); assay: flow cytometry of phage on cells
T2 construct: whole, on cells; also called CCR5-expressing cells
T2 sequence (P51681 whole entry): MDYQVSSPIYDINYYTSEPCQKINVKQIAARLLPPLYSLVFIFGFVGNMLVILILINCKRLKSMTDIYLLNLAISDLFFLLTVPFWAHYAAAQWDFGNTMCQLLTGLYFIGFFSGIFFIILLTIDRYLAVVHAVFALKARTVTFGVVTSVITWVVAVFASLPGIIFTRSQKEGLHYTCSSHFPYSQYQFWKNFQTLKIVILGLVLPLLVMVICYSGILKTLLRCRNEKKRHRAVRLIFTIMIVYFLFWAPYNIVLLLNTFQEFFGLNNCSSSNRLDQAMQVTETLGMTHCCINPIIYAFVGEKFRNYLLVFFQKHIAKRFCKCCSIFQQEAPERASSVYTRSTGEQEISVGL

[4] = target: T1, human CX3CR1 receptor; assay: phage display selection on HEK-CX3CR1 cells, recovery of endocytosed phages
[5] = target: T1, human CX3CR1 receptor; assay: phage display selection on HEK-CX3CR1 cells, elution with soluble CX3CL1
Protocol: Phage particles are represented as cylinders (encapsulated phage genome) with multiple heads (pIII-CX3CL1 mutant fusion). […] (3) Stringent washing was used to remove nonspecifically bound phage. (4) An excess of soluble CX3CL1 (sCX3CL1) was added to remove surface-associated phage. Eluted phages were allowed to infect E. coli, and stocks of selected phages were prepared to be used in a new round of selection (steps 1 to 4).
A phage library of CX3CL1 mutants (10¹⁰ CFU) was directly incubated with 5.10⁶ HEK-CX3CR1 or HEK-CCR5 cells growing in 25 cm² tissue culture flasks (Becton Dickinson, Le Pont de Claix, France) at 37° C. at 5% CO₂ in 5 ml of supplemented RPMI-1640 medium. After 1 h, cells were washed 10 times at room temperature with 10 ml of phosphate-buffered saline (PBS) and then scraped from the plate into 10 ml of PBS-0.5% BSA. Cells were then pelleted and incubated for 20 min on ice in elution buffer consisting of an excess of soluble CX3CL1 (10 μM in 100 μl PBS-BSA). Cells were centrifuged (1000×g for 5 min) and supernatant was mixed with log-phase E. coli TG1 for production and purification of stock phage to be used in further rounds of selection, as described by Hartley et al. (2003, J Virol 77, 6637-44).

[6] = target: T1, human CX3CR1 receptor; assay: competitive radioligand binding, CX3CR1-expressing CHO cells, 125I-FKN tracer
Protocol: as §1, §2

[7] = target: T1, human CX3CR1 receptor; assay: flow cytometry of phage on cells

Binder | binding result [5] | also measured
B1 | – | IC50 [1]: 0.58 nM; IC50 [2]: 0.16 nM; Log IC50 [2]: -9.79
B2 | – | binding result [3]: no binding
B3 | – | binding result [4]: binds
B4 | binds | –
B5 | – | binding result [4]: binds
B6 | binds | –
B7 | binds | –
B8 | – | IC50 [1]: 0.05 nM
B9 | binds | –
B10 | binds | –
B11 | – | binding result [3]: no binding
B12 | binds | –
B13 | binds | –
B14 | binds | –
B15 | binds | –
B16 | binds | –
B17 | – | IC50 [2]: 1.9 nM; Log IC50 [2]: -8.73
B18 | binds | –
B19 | binds | –
B20 | binds | –
B21 | binds | –
B22 | binds | –
B23 | binds | –
B24 | – | IC50 [6]: 0.39 nM
B25 | – | IC50 [6]: 1.47 nM
B26 | – | binding result [7]: no binding

From patent US20120141538A1 (UNIVERSITE PIERRE ET MARIE CURIE PARIS VI, published 2012)
